Earlier results on one molecule are cited in publication PMC10293842 (Proceedings of the National Academy of Sciences of the …, 2023).

For the data set, the system named is Omicron BA.1 and BA.2.

B1: Adintrevimab (antibody, chains of the INN, looked up, V domains shown)
VH: EVQLVESGGGLVKPGGSLRLSCAASGFTFSSYYMNWVRQAPGKGLEWVSSISEDGYSTYYPDSLKGRFTISRDSAKNSLYLQMNSLRADDTAVYYCARDFSGHTAWAGTGFEYWGQGTLVTVSS
VL: QSVLTQPPSVSGAPGQRITISCTGSSSNIGAGYDVHWYQQLPGTAPKLLIYGSSSRNSGVPDRFSGSKSGTSASLAITGLQAEDEADYYCQSYDSSLSVLYTFGTGTKVTVL
Consider B1, for which the decrease in activity was 20 fold.
